Reference: patent EP4707298A2 (INSTITUTO BUTANTAN, dated 2026)

Columns and labels:
[1] = target: T1, rFGF2 antigen (recombinant fibroblast growth factor 2) (UniProt P09038 143-288, limits assumed); assay: SPR kinetic affinity assay
T1 construct: also called FGF2 protein

[2] = target: rFGF2 antigen (recombinant fibroblast growth factor 2) (UniProt P09038); assay: SPR kinetic affinity assay
rFGF2 antigen (recombinant fibroblast growth factor 2) (UniProt P09038), sequence (P09038 143-288 limits assumed): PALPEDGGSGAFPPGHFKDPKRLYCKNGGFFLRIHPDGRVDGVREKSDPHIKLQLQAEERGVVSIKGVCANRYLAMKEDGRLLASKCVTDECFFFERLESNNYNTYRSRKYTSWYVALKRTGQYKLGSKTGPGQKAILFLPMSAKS

T1 sequence (P09038 143-288 limits assumed): as above

Row | Kd [1] [nM] | koff [1] [s⁻¹] | kon [1] [M⁻¹ s⁻¹] | Kd [2] [nM] | koff [2] [s⁻¹] | kon [2] [M⁻¹ s⁻¹] | Binder
1 | 17 | 0.000834 | 49200 | – | – | – | human anti-FGF2 antibody 85L117H (antibody, human IgG1, V domains shown, Human IgG1 format (AbVec vectors with human gamma1 HC and lambda LC constant regions)) VH: QVQLVQSGAELKRPGSSVKVSCRASGDTFKNYAITWVRQAPGQGLEWVGGIDPLVGVPNYTHRFQGRVTITADEPTSTTYMEFRDLTSDDTAVYYCARGVRDQHWSYFDSWGQGTLVTVSS VL: QSVLTQPPSASGTPGQTVNISCSGATSNIGGGSVNWYQQLPGAAPRLLIHSDNERASGVPDRFSGSKSGTSASLAISGLQSEDEADYFCASWDDSLDGHVVFGGGTKVTVL
2 | – | – | – | 8.53 | 0.00326 | 382000 | human anti-FGF2 antibody 32L98H (antibody, part only; not given: light chain 32L, human IgG1, V domains shown, part only) VH: QITLKESGPTLVKPTQTLTLTCTFSGFSLSTSGVGVGWIRQPPGEALEWLAVIHWNEANYYSPYLRSRLTITKDTSKNQMVLTVTNMDPVDTATYYCARGANSDSSGRLDAFDIWGQGTMVTVSS
3 | 9.1 | 0.00156 | 171000 | – | – | – | human anti-FGF2 antibody 62K98H (antibody, human IgG1, V domains shown, Human IgG1 format (AbVec vectors with human gamma1 HC and kappa LC constant regions)) VH: QITLKESGPTLVKPTQTLTLTCTFSGFSLSTSGVGVGWIRQPPGEALEWLAVIHWNEANYYSPYLRSRLTITKDTSKNQMVLTVTNMDPVDTATYYCARGANSDSSGRLDAFDIWGQGTMVTVSS VL: DVVMTQSPLSLPVTLGQPASISCRSSQSLIYSDGNTRLYWFHQRPGQSPRRLIYGVSNRDSGVPDRFSGSGSGTDFTLKISRVEAEDVGVYYCMQSTHWPHTFGQGTKLEIK
